Measured values published in paper PMC10068764.
pKd: −log10 of the molar value.

Molecular target: CA tri-hexamer_(center) (HIV-1)
Assay: ITC

NUP153^1411–1475/1425–1464△ peptide (25 aa) (from UniProt P49790 1411-1475)
pKd: 6.06
